According to the nanobody polyreactivity screen of Harvey et al. (2022):

Test: yeast display, Sf9 membrane polyspecificity reagent, FACS + sequencing; frameworks hold sequencing errors
Method in brief: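 Genes from sorted yeast were amplified by colony PCR, read by MiSeq 2 × 250 sequencing and filtered on CDR length. These cells carried a synthetic nanobody library in Saccharomyces cerevisiae BJ5465 and were sorted by FACS into low and high (top ~1%) gates on anti-HA and streptavidin fluorescence. Polyreactivity is labelled according to the gate of origin.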

Sequence | polyreactivity (PSR sort gate)
QVQLVESGGGLVQAGGSLRLSCAASGRTFGNYAMGWYRQAPGKERELVASITYTVGNTYYADSVKGRFTISRDNAKNTVYLQMNSLKPEDTAVYYCAADGFYLQFYHYDYWGQGTQVTVSS | low polyreactivity
QDQLVESGGGLVQAGGSLRLSCAASGSIIFFYVMGWYRQAPGKERELVAAITYSGGSTFYADSVKGRFTISRDNAKNSVYLQMNSLKPEDTAVNYCAAEYGQWTPLDPYNHWGQGTQVNVSS | low polyreactivity
QVQLVESGGGLVQAGGSLRLSCAASGSIFGQNAMGWYRQAPGKEREMVDAITSGAGITYYADSVKGRFTISRDNAKNTVYLQMNSLKPEDTAVYYCNAVPSWSPSALFDYWGQGTQVTVAS | low polyreactivity
QVQLVESGGGLVQAGGSLRLSCAASGITFYINAMGWYRQAPAKERELVAVIDSRGSSTFYADSVKGRFTISRDNAKNTVYLLMNSLKPEDTAVYYCAVEGYPGRYRDPGDLYYYWGQGTQVTLSS | low polyreactivity
QVQLVESGGGLVQAGGSLRLSCAASGSTFSSNAMGWYRQAPGKERELVAAINRTGNTYYADSVKGRFTISRDNEKNTVYLQMNSLKPEDTAVYYCNTDLNLYRGGGYWGQGTQVTVSS | low polyreactivity
QVQLVESGGGLVPARGSLRLSCAASGIILRGYAMGWYRQSPGKERELVAAITYRGSSTYYADSVKGSFTISRDNAKNTVYLQMNSLKPEDTAVYYCGADRWLYAVITAGGGYWGQGTQVTVSS | high polyreactivity
QVQLVESGGGLVQAGRSLRLTCAASGRIFRRYAMGWSRQAPGKERELVAAIRTSGGNTYYADSVKGRFTISRDNAKNTVYLQMNSLKPEDTAVYYCAAERGRLVAIASDYWGQGTQVTVSS | high polyreactivity
QVQLVESGGGLVQAGGSLRLSCAASGSTLVYNDMGWYRQAPGKEREFVAAIRSNDGSTYYADSVKGRFTISRDNAKNTVYLQMNSLKPEDTAVYYCAARYPARGTLYYWGQGTQVTVSS | low polyreactivity
QVQLVESGGGLVQAGGSLRLSCAASGRIFGVNAMGWYRQAPGKERELVAVISSGGSTYYADSVKGRFTISRDNAKNTVYLQMNSLKPEDTAVYYCNAVVGRWFPYNLSDYWGQGTQVTVSS | low polyreactivity
QVQLVESGGGLVQAGGSLRLSCAASGRTYPAYAMGWYRQAPGKERELVAAITYDGGTTYYADSVKVRFTISRDNAKNTVYLQMNSLKPEDTAVYYSAAVYDEDQYDYWGQGTQVTVSS | low polyreactivity
QVQLVESGGGLVQAGGSLRLSCAASGRTFSPNTMGWYRQAPGKEREFVAAITASGDSTYYADSVKGRFTISRDNAKNTVYLQMNSLKPEDTAVYYCDTDSNWYWGFNYWGQGTKVTVSS | low polyreactivity
QVQLVESGGGLVQAGGSLRLSCAASGRIFYYNAMGWFRQAPGQERELVAAITSGGSTNYADSVKGRFTISRDNAKNTVYLQMNSLTPEDTAVYYCNARRYGSPRSEVHYDYWGQGTQVTVSS | low polyreactivity
QVQLVESGGGLVQAGGSLRLSCAASGSTFDTYAMGGYRQAPGKERELVAAISYPGGNTYYADSVKGRFTISRDNAKNTVYLQMNRLKPEDTAVYYCNADVVDGGLAYDYWGQGTQVTVSS | low polyreactivity
QVQLVESGGGLVQAGGSLRISCAASGRILARNAMGWYRQAPGKERDLVATITWTDGSTYYADSVKGRFTISRDNAKNTVYLQMNSLKPEDTAVYYCDADLPGYWLPTVPKNYGDYWGQGTQVTVSS | low polyreactivity
QVQLVETCGGIVQAGGSLRLSCAASGITFALYAMGWYRESPGKERELVAAISYSGGRSYYADSVKGRFTISRDHAQNTVNLQMNSLKPEDTAVYYCAAGGSGSGPYGYGYWGQGTKVTVSS | high polyreactivity
QVQLVESGGGLVQAGGSLRLSCAASGIIFDYNAMGWYRQAPGKERELVAAISSSGGSTYYADSVKGRFTLSRDNAKNTVYLLMTSLKPEDTAVYYCAAAPRFRGYDYWGQGTQVTVSS | high polyreactivity
QVQLVESGGGLVQAGGSLRLSCAASGRTFGYYTMGWYRQAPGKEREYVAAISGSGTITFYADSVKGRFTISRDNAKNTVYLQMNSLKPEDTAVYYCAADYRYGGSRGYRYDYWGQGTQVTVSS | low polyreactivity
